Measured values taken from paper PMC9381698, “Generation of synthetic antibody fragments with optimal complementarity determining region lengths for Notch-1 recognition” (Frontiers in Microbiology, 2022).

Experiments:
Conditions in all cases: both partners purified
[1] = target: T1, recombinant Fc-tag-fused human Notch-1 extracellular domain (Homo sapiens, UniProt P46531); assay: ELISA; multi-point Fab-ELISA: target immobilised at 5 ug/ml on MaxiSorp plates; purified Fab 0.01 nM-1 uM in PT for 30 min; detected with HRP-conjugated anti-HIS antibody; EC50 from a one-site specific-binding fit
T1 construct: Notch-1, human, extracellular domain; No catalogue number and no residue limits are printed; also called N1; source: bought: R&D Systems
T1 sequence (P46531 19-1735): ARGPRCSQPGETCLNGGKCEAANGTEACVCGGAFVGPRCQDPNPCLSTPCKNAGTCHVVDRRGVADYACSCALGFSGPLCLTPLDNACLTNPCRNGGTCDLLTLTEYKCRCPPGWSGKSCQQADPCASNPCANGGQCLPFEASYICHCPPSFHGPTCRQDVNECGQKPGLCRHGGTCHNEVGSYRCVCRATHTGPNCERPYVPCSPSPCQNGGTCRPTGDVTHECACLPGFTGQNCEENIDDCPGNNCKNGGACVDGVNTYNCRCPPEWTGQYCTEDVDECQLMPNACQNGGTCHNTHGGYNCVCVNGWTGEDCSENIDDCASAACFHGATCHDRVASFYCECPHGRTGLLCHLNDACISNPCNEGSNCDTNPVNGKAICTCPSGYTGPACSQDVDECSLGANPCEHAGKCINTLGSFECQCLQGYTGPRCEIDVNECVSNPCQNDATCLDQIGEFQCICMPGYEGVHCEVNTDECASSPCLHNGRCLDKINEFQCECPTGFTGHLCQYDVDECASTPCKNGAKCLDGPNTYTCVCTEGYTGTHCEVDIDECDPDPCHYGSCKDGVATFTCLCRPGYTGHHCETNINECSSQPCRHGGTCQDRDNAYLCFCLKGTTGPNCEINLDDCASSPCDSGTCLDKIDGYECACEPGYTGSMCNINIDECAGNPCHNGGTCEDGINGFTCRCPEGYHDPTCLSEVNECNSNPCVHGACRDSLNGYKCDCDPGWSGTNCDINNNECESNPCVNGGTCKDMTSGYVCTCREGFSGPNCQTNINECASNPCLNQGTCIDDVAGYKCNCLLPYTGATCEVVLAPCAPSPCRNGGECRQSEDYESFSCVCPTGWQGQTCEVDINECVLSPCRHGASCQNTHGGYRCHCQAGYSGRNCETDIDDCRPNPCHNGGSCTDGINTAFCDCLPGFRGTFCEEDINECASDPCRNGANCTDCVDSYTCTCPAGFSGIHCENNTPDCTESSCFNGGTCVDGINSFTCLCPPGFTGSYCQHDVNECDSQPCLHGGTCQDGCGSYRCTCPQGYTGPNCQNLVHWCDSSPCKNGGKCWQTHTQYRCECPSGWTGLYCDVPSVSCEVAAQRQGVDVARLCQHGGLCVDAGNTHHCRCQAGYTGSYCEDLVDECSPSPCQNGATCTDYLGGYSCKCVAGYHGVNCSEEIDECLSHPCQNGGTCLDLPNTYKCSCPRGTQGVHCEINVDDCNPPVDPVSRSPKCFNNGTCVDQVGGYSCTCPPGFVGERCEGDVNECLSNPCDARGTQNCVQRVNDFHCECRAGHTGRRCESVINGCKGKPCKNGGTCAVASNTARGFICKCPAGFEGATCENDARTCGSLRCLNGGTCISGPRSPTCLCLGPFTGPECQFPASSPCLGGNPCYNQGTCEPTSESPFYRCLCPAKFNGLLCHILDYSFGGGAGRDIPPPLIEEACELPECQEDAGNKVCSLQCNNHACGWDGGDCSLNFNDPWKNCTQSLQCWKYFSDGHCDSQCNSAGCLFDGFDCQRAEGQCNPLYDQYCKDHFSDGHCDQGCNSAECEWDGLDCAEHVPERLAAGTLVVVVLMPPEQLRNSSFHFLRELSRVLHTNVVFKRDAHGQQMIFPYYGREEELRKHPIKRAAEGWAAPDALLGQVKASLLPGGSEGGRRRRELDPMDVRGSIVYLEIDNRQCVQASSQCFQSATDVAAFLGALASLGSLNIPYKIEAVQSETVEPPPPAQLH

[2] = target: T1, recombinant Fc-tag-fused human Notch-1 …; assay: BLI; Octet RED384; Fabs immobilised on amine-reactive generation-2 or anti-Fab CH1 biosensors, target proteins in solution at three or more concentrations; 25 C, PBS; global 1:1 fit; apparent KD (Fc-Notch proteins may dimerize, avidity)
[3] = target: T2, Jagged-2 receptor ectodomain (Homo sapiens (assumed), UniProt Q9Y219); assay: as above
T2 construct: Jagged-2 ectodomain; it may be an Fc fusion like the Notch proteins; also called J2
T2 sequence (Q9Y219 27-1080): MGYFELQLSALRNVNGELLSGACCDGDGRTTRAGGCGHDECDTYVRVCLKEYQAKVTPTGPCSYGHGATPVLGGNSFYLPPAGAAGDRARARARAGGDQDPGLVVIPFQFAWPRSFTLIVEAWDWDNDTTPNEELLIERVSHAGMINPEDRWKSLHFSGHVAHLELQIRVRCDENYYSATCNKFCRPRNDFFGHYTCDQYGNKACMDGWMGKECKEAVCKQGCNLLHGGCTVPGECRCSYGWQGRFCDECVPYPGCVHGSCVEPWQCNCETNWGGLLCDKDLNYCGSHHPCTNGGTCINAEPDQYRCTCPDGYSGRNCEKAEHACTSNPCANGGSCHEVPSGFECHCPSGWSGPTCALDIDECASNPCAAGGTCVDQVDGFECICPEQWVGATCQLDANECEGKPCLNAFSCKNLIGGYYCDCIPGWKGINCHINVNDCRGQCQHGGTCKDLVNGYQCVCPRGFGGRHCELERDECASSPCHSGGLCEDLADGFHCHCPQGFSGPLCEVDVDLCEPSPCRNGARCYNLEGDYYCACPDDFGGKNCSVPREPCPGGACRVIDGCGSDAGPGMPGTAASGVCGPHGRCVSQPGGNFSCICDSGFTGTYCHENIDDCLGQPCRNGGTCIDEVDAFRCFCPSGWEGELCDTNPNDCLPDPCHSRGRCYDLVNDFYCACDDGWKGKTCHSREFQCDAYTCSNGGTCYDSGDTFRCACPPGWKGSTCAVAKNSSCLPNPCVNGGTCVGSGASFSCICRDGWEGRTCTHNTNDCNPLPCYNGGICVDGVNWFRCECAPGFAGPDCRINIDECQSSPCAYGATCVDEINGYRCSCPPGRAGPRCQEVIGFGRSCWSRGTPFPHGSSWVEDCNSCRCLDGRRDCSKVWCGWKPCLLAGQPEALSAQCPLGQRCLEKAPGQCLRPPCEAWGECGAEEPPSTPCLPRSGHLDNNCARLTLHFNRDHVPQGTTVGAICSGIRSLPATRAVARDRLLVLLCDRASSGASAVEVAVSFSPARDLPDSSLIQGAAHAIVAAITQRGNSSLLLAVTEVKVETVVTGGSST

[4] = target: T3, recombinant Fc-tag-fused human Notch-1 extracellular domain (Homo sapiens, UniProt P46531); assay: BLI; Fabs immobilised on amine-reactive generation-2 or anti-Fab CH1 biosensors, target proteins in solution at at least three concentrations; 25°C, PBS; global fit to a 1:1 binding model; apparent constants (Fc fusions may dimerize)
T3 construct: Notch-1, human, extracellular domain; the R&D Systems product may hold only part of the ectodomain (surmise); also called N1; Fc-Notch; source: bought: R&D Systems
T3 sequence (P46531 19-1735): as the sequence (P46531 19-1735) above

[5] = target: T4, Jagged-2 receptor ectodomain (Homo sapiens (assumed), UniProt Q9Y219); assay: as above
T4 construct: Jagged-2 ectodomain; Probably an Fc fusion like the Notch proteins (surmise); also called J2
T4 sequence (Q9Y219 27-1080): as the sequence (Q9Y219 27-1080) above

Binder | EC50 [1] [nM] | Kd [2] [nM] | Kd [3] [nM] | koff [4] [s⁻¹] | kon [4] [M⁻¹ s⁻¹] | koff [5] [s⁻¹] | kon [5] [M⁻¹ s⁻¹]
Fab N1/F/R2 (purified soluble Fab) (Fab, V domains shown, light chain on the modified trastuzumab framework of Library-F (Persson et al., 2013); CDRs L1 and L2 fixed; clone reconstructed from NGS information; Fab heavy chain on the modified trastuzumab framework of Library-F; medium CDRH3 length; The Fab is detected by an anti-HIS antibody; source: E. coli BL21, purified (Protein-L resin)) VH: EVQLVESGGGLVQPGGSLRLSCAASGFNFSSSSIHWVRQAPGKGLEWVASIYSYYGYTYYADSVKGRFTISADTSKNTAYLQMNSLRAEDTAVYYCARSWWGGSWYAALDYWGQGTLVTVSS VL: DIQMTQSPSSLSASVGDRVTITCRASQSVSSAVAWYQQKPGKAPKLLIYSASSLYSGVPSRFSGSRSGTDFTLTISSLQPEDFATYYCQQWWSLITFGQGTKVEIK | ~4 | 1.38 | 70.4 ± 2.3 | – | – | – | –
Fab N1/F/R2 (Fab, V domains shown, Library-F rare Fab reconstructed from NGS information, modified trastuzumab framework; Library-F rare Fab reconstructed from NGS information, modified trastuzumab framework, CDRs L1 and L2 fixed; The Fab has a His tag (detected with anti-HIS antibody and biosensors); Library-F framework: Persson et al., 2013; source: E. coli BL21, purified (Protein-L resin)) VH: EVQLVESGGGLVQPGGSLRLSCAASGFNFSSSSIHWVRQAPGKGLEWVASIYSYYGYTYYADSVKGRFTISADTSKNTAYLQMNSLRAEDTAVYYCARSWWGGSWYAALDYWGQGTLVTVSS VL: DIQMTQSPSSLSASVGDRVTITCRASQSVSSAVAWYQQKPGKAPKLLIYSASSLYSGVPSRFSGSRSGTDFTLTISSLQPEDFATYYCQQWWSLITFGQGTKVEIK | – | – | – | 6.91e-05 | 54400 | 0.0226 | 313000
